PMC7948490 (2020)
Each block holds one binder with its values, some of them ahead of it.

Columns and labels:
[1] = molecular target: T1, F-actin (alpha-actin, skeletal muscle) (Gallus gallus, UniProt P68139); experiment: kinetic global fit (KinTek Explorer)
[2] = molecular target: T1, F-actin (alpha-actin, skeletal muscle); experiment: kinetic global fit (KinTek Explorer), no nucleotide
[3] = molecular target: T1, F-actin (alpha-actin, skeletal muscle); experiment: stopped-flow pyrene-actin fluorescence (k-A/k+A), 20 °C, no nucleotide

Kd [1]: 10800 nM
Kd [2]: 13 nM
Kd [3]: 13.7 nM
B1: Myosin-1C0-ΔTH1 isoform C0 lacking TH1 domain (protein)
chain: MESALTARDRVGVQDFVLLENFTSEAAFIENLRRRFRENLIYTYIGPVLVSVNPYRDLQIYSRQHMERYRGVSFYEVPPHLFAVADTVYRALRTERRDQAVMISGESGAGKTEATKRLLQFYAETCPAPERGGAVRDRLLQSNPVLEAFGNAKTLRNDNSSRFGKYMDVQFDFKGAPVGGHILSYLLEKSRVVHQNHGERNFHIFYQLLEGGEEETLRRLGLERNPQSYLYLVKGQCAKVSSINDKSDWKVVRKALTVIDFTEDEVEDLLSIVASVLHLGNIHFAANEESNAQVTTENQLKYLTRLLSVEGSTLREALTHRKIIAKGEELLSPLNLEQAAYARDALAKAVYSRTFTWLVGKINRSLASKDVESPSWRSTTVLGLLDIYGFEVFQHNSFEQFCINYCNEKLQQLFIELTLKSEQEEYEAEGIAWEPVQYFNNKIICDLVEEKFKGIISILDEECLRPGEATDLTFLEKLEDTVKHHPHFLTHKLADQRTRKSLGRGEFRLLHYAGEVTYSVTGFLDKNNDLLFRNLKETMCSSKNPIMSQCFDRSELSDKKRPETVATQFKMSLLQLVEILQSKEPAYVRCIKPNDAKQPGRFDEVLIRHQVKYLGLLENLRVRRAGFAYRRKYEAFLQRYKSLCPETWPTWAGRPQDGVAVLVRHLGYKPEEYKMGRTKIFIRFPKTLFATEDALEVRRQSLATKIQAAWRGFHWRQKFLRVKRSAICIQSWWRGTLGRRKAAKRKWAAQTIRRLIRGFVLRHAPRCPENAFFLDHVRTSFLLNLRRQLPQNVLDTSWPTPPPALREASELLRELCIKNMVWKYCRSISPEWKQQLQQKAVASEIFKGK

Kd [1]: 22200 nM
Kd [2]: 16.3 nM
Kd [3]: 16.9 nM
B2: Myosin-1C35-ΔTH1 isoform C35 lacking TH1 domain (protein)
chain: MALQVELVPTGEIIRVVHPHRPCKLALGSDGVRVTMESALTARDRVGVQDFVLLENFTSEAAFIENLRRRFRENLIYTYIGPVLVSVNPYRDLQIYSRQHMERYRGVSFYEVPPHLFAVADTVYRALRTERRDQAVMISGESGAGKTEATKRLLQFYAETCPAPERGGAVRDRLLQSNPVLEAFGNAKTLRNDNSSRFGKYMDVQFDFKGAPVGGHILSYLLEKSRVVHQNHGERNFHIFYQLLEGGEEETLRRLGLERNPQSYLYLVKGQCAKVSSINDKSDWKVVRKALTVIDFTEDEVEDLLSIVASVLHLGNIHFAANEESNAQVTTENQLKYLTRLLSVEGSTLREALTHRKIIAKGEELLSPLNLEQAAYARDALAKAVYSRTFTWLVGKINRSLASKDVESPSWRSTTVLGLLDIYGFEVFQHNSFEQFCINYCNEKLQQLFIELTLKSEQEEYEAEGIAWEPVQYFNNKIICDLVEEKFKGIISILDEECLRPGEATDLTFLEKLEDTVKHHPHFLTHKLADQRTRKSLGRGEFRLLHYAGEVTYSVTGFLDKNNDLLFRNLKETMCSSKNPIMSQCFDRSELSDKKRPETVATQFKMSLLQLVEILQSKEPAYVRCIKPNDAKQPGRFDEVLIRHQVKYLGLLENLRVRRAGFAYRRKYEAFLQRYKSLCPETWPTWAGRPQDGVAVLVRHLGYKPEEYKMGRTKIFIRFPKTLFATEDALEVRRQSLATKIQAAWRGFHWRQKFLRVKRSAICIQSWWRGTLGRRKAAKRKWAAQTIRRLIRGFVLRHAPRCPENAFFLDHVRTSFLLNLRRQLPQNVLDTSWPTPPPALREASELLRELCIKNMVWKYCRSISPEWKQQLQQKAVASEIFKGK
